B1: VieB (wild type, His6 tag removed) (natural protein)
chain: MAVPTFAELKVLIIDDAPIVIASLRSMLLKLGFTDPNIVWSKSPRAAVFMAGRQRFDIFICDYNFGKGLNGKQVFEELKHYKLIKQDAVFVLVTGENSAYVVHSILELKPDEYILKPFNIMTLQERLTNAISRKHALKALYQAERDGDAELGLSLCDELEPFYNDYYFVIQKFRGEFLTQLRRFDHAREVYLETLEHKDFDWAKIGLANALKQTGRQVEATQVIQELLASAPNNVRARVEAASISLCNNSIPEAIHHLQVANQIVPGHSEREWVLANLCLSVGDGASALERYRLYVEINKETYRNNHQMHLNFIRTLLYAARQAESEQRDLWVQEAKSILKGLYDKGQHEDLLAQLELVAAHLAMEEGEFGVSVEILNKIYRAKPFELFEDRYHFTWLLNVMGFDSEFAKCISWCNGTLLNQETDIVLESKVALAKALKEANQEKLQWLEQRYHALCNKQQTIDSLLAIYIEILEKCPTLRTVCMKVVTIFSRYWPTALTESEAERLLKSCHRTIRQLMNEEELQQAQYAELYRKALTFRSRYRLQRTESVEA
B2: VieA-His6 (response regulator VieA) (natural protein)
chain: MKIMIVEDDRIQATSLKLKLRQLGLDDVILAENGFAALELCNKVGIDLMFCDIRMPQMDGISLLSQLSLQAPKLGVVILSAVEDTILELTHNMCSLAGFAYVDRLPKPYEVEDLQRVVEGFQKQTEPETSHKPAITLTCDEIEQAFLHDHIFNYYQPQFDFRSGAMVGVEALVRYEHPTHGMLSPAVFLPLIEQCGLHEKLFLTVLEKSVSALASIGADLQLSVNISQRNLQHSICDPILAICERYGFPASKLTLEMTEHEVYNGTPTSLANLARLRMYGVGLSIDDFGTGYASLGQLAQLPFTELKIDRSFVHDLATNYKHQQLTNMCLLLAQSLGLHCVVEGVENEETWQYLRQLGVDTCQGYYAAKPMPIAQLSELYTKNRRQCLGCQSMDDGWQILLVDNHMLSATALQKVLNKEENVSKVFVAQDIEQTLHKLRDLPINLLVVESRFLSTISPAAFHELLEPYYRGALLVLHDGLTAEAQEDEPKAIVVKANTLMETSSRILLQAQQSNVRPQAQQEELAQLSERELTVAKMLVEGLTNKEIALQLDINQKTVSTYKTRIMTKLGIKSAMELVRFVTLK
notes: not shown: His6, C-terminal, kept

Tests used:
[1] = target: VieS-C (untagged cytoplasmic portion of the sensor kinase VieS) (UniProt O68317); assay: SEC-MALS; Superose12 10/300 GL in Gel Filtration Buffer (25 mM Tris pH 7.5, 100 mM KCl, 1 mM DTT, 5% glycerol); column at 4°C, light scattering at 25°C; self-association of each protein
[2] = target: VieS-C (untagged cytoplasmic portion of the sensor kinase VieS) (UniProt O68317); assay: composition-gradient MALS (CG-MALS)
[3] = target: the molecule itself; assay: SEC-MALS; Superose12 10/300 GL in Gel Filtration Buffer (25 mM Tris pH 7.5, 100 mM KCl, 1 mM DTT, 5% glycerol); column at 4°C, light scattering at 25°C; self-association of each protein

Molecule | stoichiometry N [1] | Kd [2] [µM] | stoichiometry N (VieB monomer per VieS-C dimer) [2] | stoichiometry N (VieA-His6 dimer per VieS-C dimer) [2] | stoichiometry N [3]
VieS-C (untagged cytoplasmic portion of the sensor kinase VieS) (from UniProt O68317 1-1146) (domain or fragment) | 2 | – | – | – | –
B1 | – | 0.467 | 1 | – | –
B2 | – | 1.38 | – | 1 | 2

Reference: PMC4352251, “The VieB auxiliary protein negatively regulates the VieSA signal transduction system in Vibrio cholerae” (BMC Microbiology, 2015)
